According to IntAct's records for PubMed 26437117:

B1: Synaptotagmin-1 (Rattus norvegicus (Rat)), P21707 (parent)
chain: MVSASHPEALAAPVTTVATLVPHNATEPASPGEGKEDAFSKLKQKFMNELHKIPLPPWALIAIAIVAVLLVVTCCFCVCKKCLFKKKNKKKGKEKGGKNAINMKDVKDLGKTMKDQALKDDDAETGLTDGEEKEEPKEEEKLGKLQYSLDYDFQNNQLLVGIIQAAELPALDMGGTSDPYVKVFLLPDKKKKFETKVHRKTLNPVFNEQFTFKVPYSELGGKTLVMAVYDFDRFSKHDIIGEFKVPMNTVDFGHVTEEWRDLQSAEKEEQEKLGDICFSLRYVPTAGKLTVVILEAKNLKKMDVGGLSDPYVKIHLMQNGKRLKKKKTTIKKNTLNPYYNESFSFEVPFEQIQKVQVVVTVLDYDKIGKNDAIGKVFVGYNSTGAELRHWSDMLANPRRPIAQWHTLQVEEEVDAMLAVKK

Variants of: B1
Settings: with stx1a_mouse Stx1a

Variant | effect of a mutation on the interaction
D178A;D230A;D232A;D309A;D363A;D365A | decreasing interaction strength
